# Reference: the nanobody polyreactivity screen of Harvey et al. (2022)
# Experiment: yeast display, Sf9 membrane polyspecificity reagent, FACS + sequencing; frameworks hold sequencing errors
# Outline: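 A synthetic nanobody library was expressed on Saccharomyces cerevisiae BJ5465 by galactose induction for 36–48 hours. The library was stained for 1 hour at 4 °C with 10% biotinylated, detergent-solubilized Sf9 membrane reagent and enriched with streptavidin microbeads before FACS. Low and high (top ~1%) gates were set on anti-HA fluorescence for expression and streptavidin fluorescence for reagent binding, and each polyreactivity label reflects the gate of origin.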
row,Sequence,polyreactivity (PSR sort gate)
1,QVQLVESGGGLVQAGGSLRLSCAASGFIFAWYTMGWYRQAPGKERELVAAISANGGNTYYADSVKGRFTISRDNAKNTVYLQMNSLKPEDTAVYYCAALYKYSSSFDYWGQGTQVTVSS,high polyreactivity
2,QVQLVESGGGLVQAGGSLRLSCAASGFIFADYAMGWYRQAPGKERELVAAISASGGITYYADSVKGRFTISRDNAKNTVYLQMNSLKPEDTAVYYCNAVTGKWNWRKYDYWGQGTQVTVSS,high polyreactivity
3,QVQLVESGGGLVQAGGSLRLSCAASGRSIWYYTMGWYRQAPGKERQFFAAITTSGGSTTYADSVKGRYTISRDTAKNTVFLQRNSLKPEDSAVYYCAARVYHGKSKYDYWGQGSQVTVSS,high polyreactivity
4,QVKLVESGGGLVQAGGSLRLSCAASGSIFWGYDMGWYRQAPGKERELVARISYSGGSTSYADSVKGRFTISRDNAKNTVYLQMNSLKPEDTAVFYCAADEGGFWWTYPYDSLGQGTQVTVSS,low polyreactivity
5,QVQLVESGGGLVQAGGSLRLSCAASGLTFWYNAMGWYRQAPGKERELVAAINSGGRTNYADSVKGRFTISRDNAKNTVYLQMNSLKPEDTAVYYCAAVRHWTVGWTYYYWGQGTQVTVSS,high polyreactivity
6,QVQLVESGGGLVQAGGSLRLSCAASGRSFVSYAMGWYRQAPGKERELVASITSSDGTNYADSVKGRFTISRDNEKNTVYLQMNSLKPEDTAVFYCNKDGFTTDRIGPTSDYWGQGTQVTVSS,low polyreactivity
7,QVQLVESGGGLVQAGGSLRLSCAASGSIYGDNAMGWYRQAPGKERELVAAINYNGGRTYYADSVKGRFTISRDTAKNTVYLQMNSLKPEDTAVYSCAKDNYQAPVQQYPFDYWGQGTQVTVSS,low polyreactivity
8,QVQLVESGGGLVQAGGSLRLSCAASGSTFYPYAMGGYRQAPGKERELVARITQNGGSTYYADSVKGRFKISRDNAKNPVYLQMNSLKPEDTAVYYCADRWISVLSYGKYDYCGQGTQVTVSS,high polyreactivity
9,QVQLVESGGGLVQAGGSLRLSCAASGRIFGYYAMGWYRQAPGTERELVASIRRGTRTNYADSVKGRFTISRDNAKNTVYLQMNSLKPEDTAVYYCAATRFQFTTTPWYDYWGQGTQVTVSS,high polyreactivity
10,QVQLVESGGGIVQAGGSLPLSCAASGIIFSVNAMGWYRQAPGKERELVAAITYSGGSTYYADSVKGRYTISRDNAKNTVYLQMNSLKPEVTAVYYCAAETYSSGEWYDYWGQGTQVTVSS,high polyreactivity
11,QVQLVESGGGIVQAGGSLRLSCAASGSISVPYGMGWYRPAPGKERELVAAITGGSTYYADSVKGRFTISRDNAKNTVYLQMNSLIPEDTAVYYCFDVNTDVLSRVYRGWGYYYWGQGTQVTVSS,low polyreactivity
12,QVQLVESGGGLVQAGGSLRLSCAASGRIFTQYAMGWYRPAPGKERELVAAISSSGVRTYYADSVKGRFTISRDNAKNNVYLQMNSLKPEDTAVYYCAVRRGGAYYQFGYWGQGTQVTVSS,high polyreactivity
13,NVQLVESGGGLVQAGGSLRLSCAASGRTFPTYAMGWYRQAPGKERELVAAISSSGGSTYYADSVKGRFTISRDNAKNTVYLQMNSLKPEDTAVYYCAALRARNLNPGYDYWGQGTQVTVSS,low polyreactivity
14,QVQLVESGGGVVQAGGSLRLSCAASGSIYSQYAMGWYRQAPGTERELVASISRRGGRTYYADSVKGRFTISRDNAKNTVYLQMNSLKPEETAVYYCAALDTAGPYNTLDIYDHWGQGTQVTVSS,high polyreactivity
15,QVQLVESGGGLVQAGGSLRLSCAASGSTFYRYAMGWYRQAPGKETELVAAITWRGGSTYYADSVKGRFTISRDNAKNTVYLQMNSLKPEDTAVYYCAAAKYRRGTRYYYWGQCTQVTVSS,high polyreactivity
16,QVQLVESGGGLVQAGGSLRLSCAASGSTFSSYVMGWYRKAPVKERELVAAISSIGGSTYFADSVKGRFTISRDNAKNTVYLQMNSLKPEDTAVYFCAAEPPGSTYEGGYWGQGTQVTVSS,low polyreactivity
17,QVQLVESGGGLVQAGGSLRLSCAASGGIFSYYAMGWYRQAHGKERELVAAISGSGGRTYYADSVKGRFTISRDNAKNTVYLQMNSLKPEDTAVYYCAADSLSYSWEYYYWGQGTQVTVSS,high polyreactivity
18,QVQLVESGGGLVQAGGSLRLSCAASGRIFYNYAMGWYRQAPGKERELVAAISGSGGSTYYADSVKGRFTISRDNAKKTVYLQMNSLKPEDTAVYYCSTSGPQYYSRNFDYWGQGTQVTVSS,low polyreactivity
19,QVQLVESGGGLVQAGGSLRLSCADSGFIFVVKAMGWYRQAPGKEREIVAVISSSTGSTYYADSVKGRFTISRDNAKNTVYLQLNSLKPEDTAVYSCAAASRRRRPLKRMYYWGQGTQVTVSS,low polyreactivity
20,QVQLVESGGGLVQAGGSLRLSCAASVRTFHYYAMGWYRQAPGKERELVAGITGGGSTYYADSVKGRFTISRDNAKNTVYLLMNSLKPEDTAVYYCADDRSYYGYGYCGQGTQVTVSS,low polyreactivity
21,QVQLEESGGGLVQEGGSLRLSCAASGSTFVTYAMGWYRPSPGKARELVAAISQSGGSTYYADSVKGRFTISRDNAKNTVYLQMNSLKPEDSAVYYCAAEYWDIAYCFVWWIYDYWGQGTLVTVSS,high polyreactivity
22,QVQLVESGGGLVQAGGSLRLSCAASGIIFSYYAMGCYRQAPGKERELVAAISWSGGSTYYADSVKGRFTISRDNAKNTVYLQMNSLKPEDTAVYYCAADDYLAYVYWGQGTQVTVSS,high polyreactivity

row,Sequence,polyreactivity (PSR sort gate)
1,QVQLVESGGGLVQAGGSLRLSCAASGSTFDANAMGWYRQAPGKERELVATISDGGSTNYADSVKGRFTISRDNAKNTVYVQMNSLKPEDTAVYYCAAVKLFLGLGYDYWGQGTEVTVSS,low polyreactivity
2,QVQLVESVGGLVQAGGSLRLSCAASGSIFWPNAMGWYRQAPGKERELVATISGSGGSTYYADSVKGRFTISRDNAKNTVYLQMNSLKPEDTAVYYCAADYRYGRYDYWGQGTQVTVSS,high polyreactivity
3,QVQVVESGGGLVQAGGSLRLSCAASGFIFLRYDMGWYRQAPGKERELVAAINGNGGSTYYADSVKGRFTISRDNAKNTFYLQMNSLKPEDTAVYYCNARRRTYARNYGYWGHGTQVTVSS,high polyreactivity
4,QVHLVESGGGLVQAGGSLRLSCAASGRTFSTYAMGWYRQAPGKESELVAAISSGGGRTYYADSVKGRFTISRDNAKNTVYLQMNSLKPEDTAVYYCAADRYFRSRRSYEYWGQGTQVTVSS,low polyreactivity
5,QVQLVESGGGVVQAGGSLRLSCAASGRTSYWYAKGCYRQAPGKERELVADISWSGGSTYYADSVKGRFTISRDNAKNTVYLQMNSMKPEDTAVYYCNAAEQKYSIYYAFDTGPYDYWGQGTQVTVSS,low polyreactivity
6,QVQLVESGGGLVQAGGSLRLSCAASGSIFGWYAMGWYRQAPGKERELVATISSGGGNTYYADAVKGRFTISRDNAKNTVYLQMNSLKPEDTAVYYCNASPGPDSRLAEFDYWGQGTQVTVSS,low polyreactivity
7,QLQLVESAAGLFQAGVSHRLSCDASGSTLSQNSMGGYRQAPGKEREFVADISGSGDSTYYADSVKGRFTISRDNAKNTVYLQMNSLKAEDTAVYYCATPSPHVGLKWEYDYWGQGTQVTVSS,low polyreactivity
8,QVHLVESGGGLLQAGGSLRLSCAASGRTSDSNAMGWYRQAPGKETELVAAITISGVSTYYADTVKGRFTISRDNAKNTVYLQMNSLKPEDTAVYYCAKDPTFSSSFAVSLGFDSWGQGTQVTVSS,low polyreactivity
9,QVQLVESGGGLVQAGGSLSLSCAASGSIFSYYAMGWYRQAPGKARELVAAITANGGSTSYADSVKGRFTISRDTANNTVYLQMNRLKPEDTAVYYCAKESDYPDFVSTKGDYDYWGQGTQVTVSS,low polyreactivity
10,QVQLVESGGGLVQAGGSLRLSCAASGRIFGHYAMGWYRQAPGKERELVAAISRGGSTYYADSVKGRFTISRDNAKNTVYLQMNSLKPEDTAVYYCNTTKAYGSLWWRGDYWGQGTQVTVSA,high polyreactivity
11,QVQLVESGGGLVQAGGSLRLSCAASGFIFDANAMGWYRQAPGKERELVAAISRRGGRTYYADSVKGRFTISRDNAKNTVYLQMNSLKPEDTAVYYCAADWPDASRYGGGYWGQGTQVTVSS,high polyreactivity
12,QVQLVESGGGLVQAGGSLRLSCAASGRIFSHNAMGWYRQAPGKERELVAAISRSGGRTYYADSVKGRFTISRYNAKNTVYVQMKSLKPEDTAVYYCAADYRLKKSPGYSGEDDYWGQGTQVTVSS,high polyreactivity
13,QVQLVESGGGLVQAGGSLRLSCAASGNTFWFYGMGWYRQAPGKERELVAAITSGGSTDYADSVKWRFTISRDNAKNTVYLQMNSLKPEDTAVYYCAAEPVAYYGSSYGYWGQGTQVTVSS,low polyreactivity
14,QVQLVESGGGLVQAGGSLRLSCAASGRIFFPYAMGWYRQAPGKERELVAAISTSSGRTYYADSVKGRFTISRDNAKNTVYLQMNSLKPEDTAVYYCNTRPGSYSYSYRYYYWGQGTQVTVSS,high polyreactivity
15,QVQLVESRGGLVQAGGSLRLSCAASGSTFSVYAMGWYRQAPGKERELVADITRGGSTYADSVTGRFTISRDNAKNTVYLQMNSLKPEDTAVDYCARAEVTPYPLYWSTREYDYWGQGTQVTVSS,low polyreactivity
16,QVQLVESGGGLVQAGGSLRLSCAASGFIFYYNAMGWSRQAPGKERELVASISRDCGRTYYADSVKGRFTISRDNAKNTVYLQMNSLKPEDTAVYYCAKKRINSRKYDYWGQGPQVTVSS,low polyreactivity
17,QVQLVESGGGLVQAGGSLRLSCAASGSIFTKYAMGWYRQAPGKERELVAGISRTTGSTYYADSVKGRFTISRDNAKNTVYLQMNSLKPEDTAVYYCAALSYRRGISRDGGYDYWGQGTQVTVSS,high polyreactivity
18,QVQLVESGGGLVQAGGSLRLSCAASGRIFISYTMGWYRQAPGKDRELVAGIDSSGTSTYYADSVKGRFTISRDNAKNTVYLQMNSLKPEDTAVYYCNVDGNWKDTSTELDYWGQGTQVTVSS,low polyreactivity
19,QVQLVESGGGLVQAGGSLRLSCAASGFIFPWYAMGWSRQAPGKERELVAIISWDTGSTYYADSVKGRFTISRDNAKNTVYLQMNSLKPEDTAVYYCVAYVGSTYSAPEYYWGQGTQVTVSS,low polyreactivity
20,QVQLVESGGGIVQAGGSLRLSCAASGFTLWLNAMGWYRQAPGKERELVAAITTSDDGTYYADSVKGRFTISRDNAKNTVYLQMNSLKPEDTAVYYCASDYYSVLYDYWGQGTQLTVSS,low polyreactivity
21,QVQLVESGGGLVQAGGSLRLSCAASGFIFAAYAMGWYRQAPGKERELVAAISYSGDRTYYADSVKGRFTISRDNAKNTVYLQMNSLKPEDTAVYYCDADARAYTYDYWGQGTQVTVSS,high polyreactivity
